Source: the supplement of paper PMC9170038
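Throughout, for apparent KD of K4 kissing-loop reporter: bound reporter read as fluorescence of individual clusters on recovered sequencing chips by microscopy, with normalized cluster intensities fitted with a binding model.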

The sequences below were run on K4 kissing-loop RNA reporter (assay: apparent KD of K4 kissing-loop reporter; higher = weaker reporter binding). Conditions: Eterna round: R107; input ligand: tryptophan 2.4 mM.
Protocol: (§1)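 RNA-MaP round R107: designed RNA switches with theophylline, tryptophan, arginine or FMN aptamers are transcribed on-chip within common flanks. They are titrated with a labelled K4 kissing-loop RNA reporter in RNA-MaP buffer (100 mM Tris pH 7.5, 80 mM KCl, 4 mM MgCl2), without ligand or with the indicated ligand. Median apparent KD per design.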
In the case of “GUUACGCAUGGAAGGAGCGCAGGCUCAACUUGAAGCUCAGUGAUGUUGAGCAAAUUAAAACUGCAGGUAGGUCGCCAUGUGUAAC [Ex Arginine B K4 27]”, the “apparent KD of K4 kissing-loop reporter” value is reported as 448 nM. For “ACGUGCACCAGUGAUGUUGGAAAAUAUGAAGGAGCGGGUGAAAACCCAGGUAGGUCGCAUAAUAGCACGAGCCACGAAAGUGGCA”, the “apparent KD of K4 kissing-loop reporter” value was 122 nM. In the case of “GUUAUGGACCUGGAUACCAGCUGGUACAAGGUCGGUCUACAUGAGUGAUGUUCAUGUGUCAGCCCUUGGCAGCCAGCAACCGGCA [KL-XTheo-B10]”, the “apparent KD of K4 kissing-loop reporter” value is reported as 86.2 nM. With “CCUUGAGAGUGAUGUUCUCGAGUGAAAGUCAAGGAUAUCCCGCGGUGGAGAAGGUGAUGGCGAACUUGACUGCUGUCAGUCCUAA [theeternabot_exclusion_KL_FMN_A_10]” the “apparent KD of K4 kissing-loop reporter” value was 110 nM. “AUUUAAUUAACUGAUACCAGACUUUUUGUUUUGUUUAUUACUAGUGAUGUUAGUGUUUCUGUCCCUUGGCAGCAGAAUCUACUUA [JR_ExcTheophyB_Sub019]” was tested, and the “apparent KD of K4 kissing-loop reporter” value was 165 nM. For “GGGAAGGAGUGAUGUUUCUUCUGAAUUUCUAAGGAUAUACGAUGCGGUAGAAGGUAGAUGCCUUGCAGGAAAUGUUCACCACGCG [theeternabot_exclusion_KL_FMN_A_2]”, the “apparent KD of K4 kissing-loop reporter” value was 158 nM. With “ACCUACGAUCACAAUAGUGAUUGUAGGAACUAGGAUAUGCUGAAAAGCAGAAGGAGUGAUGUUCCAACUCAUGAAUAACAUGAGA [FmnAX 2 #OpenEnded #K4Late]” the “apparent KD of K4 kissing-loop reporter” value was 198 nM. For “AAAAUAAUCCAGUGAUGUUGGUCUCCAGAUACCAGCGACGAAAGUCGCCCUUGGCAGCUGUGGACGUACAAAAUAAGUACGUCCU”, the “apparent KD of K4 kissing-loop reporter” value was 314 nM. With “AGGGUAAGGCGUUAACAUGACACCUGGGAAGGAGCGCGGUACACCGCAGGUAGGUCGCCCAGUGAUGUUGGGCGUAAGUAUGAGU [KL-XArg-A22]” the “apparent KD of K4 kissing-loop reporter” value was 137 nM. With “AUUCAGAUCUGAAGGAGCGCCUUGACAAAUUACUGCUUUGAGCAGUGAUGUUGCUCAAUUAGGCAGGUAGGUCGCAGAUCUAACC [Arg B Ex t7]” the “apparent KD of K4 kissing-loop reporter” value was 389 nM. “AAAAUAAAGCAGUGAUGUUGCAUAUGAGAAGGAGCGCACGAAAGUGCAGGUAGGUCGCUCAGCCAAGUGGACGAAAACGUCCACA [#OpenEnded 9 #K4Early]” was tested, and the “apparent KD of K4 kissing-loop reporter” value was 93.7 nM. With “GCCGUAGAUUGAAGGAGCGGGAGAGGGAAAGUGAUGUUUUCUCUAUGACGGCGUCCUCGAUCCCAGGUAGGUCGCAAUCUACGGC” the “apparent KD of K4 kissing-loop reporter” value was 105 nM. For “AAAAUAAACCAGUGAUGUUGGUAACCAGAUACCAGCGACGAAAGUCGCCCUUGGCAGCUGUGGACGUACAAAAUAAGUACGUCCU”, the “apparent KD of K4 kissing-loop reporter” value was 199 nM. With “GAAUAAUAACAUGAGUGAUGUUCAUGUAAACGAGGACCGGUACGGCCGCCACUCGAACCUCAUGUAAGCCGUACCAAUAACAAUA [KL-XTryp-A4 #analogue]” the “apparent KD of K4 kissing-loop reporter” value was 120 nM. For “AUUAAUAACUGAGGAUAUCGUUUUACUGUAGUGAUGUUACAGAAAGUUCAAAUUAUAAUUUCUAUUCGAGAAGGCAGAAUAAUUA [JR_SSFMNB_Sub026]”, the “apparent KD of K4 kissing-loop reporter” value was 48.1 nM. In the case of “UUUCGUCUCUGAGGAUAUCAGACGAGAGUGAUGUUCUCCCAAAGCCCAGUGAUGUUGGAUGCUAUCUGAGAAGGCAGUGGGCGAA [Same State FMN B GF 12]”, the “apparent KD of K4 kissing-loop reporter” value is reported as 508 nM. “GGCGAAUAAAAUCGCCUAGAGAGAAAGGAUACCAGCACCCGGCGGUGCCCUUGGCAGCCUAGCCCAGUGAUGUUGGGUCCUCUAA [Biaveinbe]” was tested, and the “apparent KD of K4 kissing-loop reporter” value was 206 nM. For “ACGUCUUGUAAACUCGUGGUUUCGAUCGAUACCAGUAGCGAGAGUUACCCUUGGCAGCGACAUGAGUGAUGUUCAUGUACGAAGA [KL-XTheoA3]”, the “apparent KD of K4 kissing-loop reporter” value was 90.7 nM.

These sequences were tested on MS2 coat protein (assay: apparent KD of MS2 coat protein; higher = weaker reporter binding). Conditions: Eterna round: R107; input ligand: arginine 13.2 mM.
Protocol: as §1, with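 “SNAP-549-labelled MS2 coat protein” for “a labelled K4 kissing-loop RNA reporter”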
“UUGUAUAUGCGAAGGAGCGGGAAAUAUAUAUAUAUAAUCCUAACAUGAGGAUCACCCAUGUCCCAGGUAGGUCGCGCAUAUAUGG [12.F]” was tested, and the “apparent KD of MS2 coat protein” value was 80.5 nM. With “GGAUAUGGUGAAAGAGAGAAGAGAGAUGAUACCAGUAAGAGAAGAUGCCCUUGGCAGCAUAGAGACAUGAGGAUCACCCAUGUAA [solution]” the “apparent KD of MS2 coat protein” value was 12 nM. For “CUCAUCCACGCGGCCGCCACUAUAUUGUGGUGCGUAUGUGUCGUAAUACAUGAGGAUCACCCAUGUAGGACCGGGCGUGGAUGAG [#10 Exclusion Tryptophan B]”, the “apparent KD of MS2 coat protein” value was 10.9 nM. With “AUACCUAAUGAGUCGUGUAACUUUUCAGAUACCAGACUUUUCGUUGUCCCUUGGCAGCUGUUUUACAUGAGGAUCACCCAUGUUG [JR_ExcTheophyA_Sub008]” the “apparent KD of MS2 coat protein” value was 14.9 nM. With “ACUCGAGGUGGAAGGAGCGGGAGACAUGAGCAUCACAUGAGGAUCACCCAUGUAGGAUCAUCCCAGGUAGGUCGCCAUGUCGAAA [avtamullin]” the “apparent KD of MS2 coat protein” value was 105 nM. In the case of “GGGCCCGGGCGCGAGCCCGGGCCCAUUGAUACCAGUGAUAUAUAGCGCCCUUGGCAGCGAAUCCUAACAUGAGGAUCACCCAUGU [5.I]”, the “apparent KD of MS2 coat protein” value is reported as 23.7 nM.
